From the RNAGym collection of RNA variant scans (doi:10.1073/pnas.2313332121) come the findings set out here.

The labels stand for the following.
B1: TPR t1 (parent)
chain: GACCAAUCUGCCCUCAGAGCUCGAGAACAUCUUCGGAUGCAGAGGAGGCAGGCUUCGGUGGCGCGAUAGCGCCAACGUCCUCAACCUCCAAUGCAUCCCACCACAUGAUGAUGCCUGAAGAGCCUUGGUUUUUUG

Variants of B1 are the subject of this data set. Briefly: polymerase ribozyme fitness, log enrichment relative to wild type (log ratio); higher = more active; in vitro selection for triplet polymerase activity. Summed up: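 Mutant libraries of each subunit of a heterodimeric triplet polymerase ribozyme were built by PCR and transcribed. Each library went through one round of in vitro selection in triplicate: annealing with biotinylated primer, partner subunit and triplets, frozen incubation at −7 °C, gel excision of extended constructs, streptavidin-bead capture and RT-PCR. Input and output libraries were Illumina-sequenced; only genotypes with ≥10 input reads and ≥1 read per output were kept. Fitness is log2(genotype enrichment/wild-type enrichment), using inverse-variance-weighted replicate averages.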
Consider C12G U130C, for which the “polymerase ribozyme fitness (log ratio)” value is 0.663.

In the case of U7G C28U G48A, the “polymerase ribozyme fitness (log ratio)” value was -1.75.

For C98U A108G, the “polymerase ribozyme fitness (log ratio)” value is -6.36.

Take U32C C82G U87A: the “polymerase ribozyme fitness (log ratio)” value is -2.42.

In the case of G93A C98A, the “polymerase ribozyme fitness (log ratio)” value was -5.11.

With C72G U92A A118U U131C, the “polymerase ribozyme fitness (log ratio)” value was -3.98.

Take G45A A50G C62U: the “polymerase ribozyme fitness (log ratio)” value is -0.502.

As for C70A U126C, the “polymerase ribozyme fitness (log ratio)” value was -2.02.

In the case of A43U G44C G45A A83C G110A, the “polymerase ribozyme fitness (log ratio)” value was -6.81.

Regarding G42U C49A G69U, the “polymerase ribozyme fitness (log ratio)” value turned out to be 0.552.

As for G71A C94A, the “polymerase ribozyme fitness (log ratio)” value is -2.86.

Turning to C34U A41U G63U U109A C115A, the “polymerase ribozyme fitness (log ratio)” value was -5.59.

For U30G C79G U106A, the “polymerase ribozyme fitness (log ratio)” value was -3.54.

For the variant G45U A66G, the “polymerase ribozyme fitness (log ratio)” value was -2.32.

On to G35A A100G, for which the “polymerase ribozyme fitness (log ratio)” value is -6.42.

With C12A G61U U109G, the “polymerase ribozyme fitness (log ratio)” value is -7.2.

As for A6U C70U, the “polymerase ribozyme fitness (log ratio)” value is -0.544.

For the variant C73G A83G, the “polymerase ribozyme fitness (log ratio)” value was -1.44.

With C13U G25C U33G C70U U81A U109A, the “polymerase ribozyme fitness (log ratio)” value was -6.3.

Consider G69U A119U, for which the “polymerase ribozyme fitness (log ratio)” value stood at 0.577.

Take C12U G63U A75C: the “polymerase ribozyme fitness (log ratio)” value was -0.74.

As for U9A G19C C85A U112A, the “polymerase ribozyme fitness (log ratio)” value was -0.364.

For the variant U7A G10A G52U C62G, the “polymerase ribozyme fitness (log ratio)” value is -2.23.

Turning to G69C G93C, the “polymerase ribozyme fitness (log ratio)” value is -3.05.

As for C15U G39C G69U C94U C115U C123A G135U, the “polymerase ribozyme fitness (log ratio)” value was -1.89.

Take C12A G17A: the “polymerase ribozyme fitness (log ratio)” value was -4.31.

With G17U A37U G60A, the “polymerase ribozyme fitness (log ratio)” value was -2.43.

As for A18G A27G, the “polymerase ribozyme fitness (log ratio)” value is -4.94.

As for G39U G52U G61U C102U, the “polymerase ribozyme fitness (log ratio)” value was -4.31.

Turning to A66U C124G, the “polymerase ribozyme fitness (log ratio)” value worked out at 0.671.

On to C8A C114G, for which the “polymerase ribozyme fitness (log ratio)” value was -2.41.

As to U7A C22G C40U G42U C62G, the “polymerase ribozyme fitness (log ratio)” value is -6.04.

C114U C123A: the “polymerase ribozyme fitness (log ratio)” value is -1.94.

On to C13A G93C, for which the “polymerase ribozyme fitness (log ratio)” value was -2.4.

For the variant C72A C102A U129A, the “polymerase ribozyme fitness (log ratio)” value is -2.3.

G60U C85A C101U: the “polymerase ribozyme fitness (log ratio)” value was -0.366.

Regarding U9A C101G, the “polymerase ribozyme fitness (log ratio)” value was -1.55.

Regarding C13A C15U G51A C94U, the “polymerase ribozyme fitness (log ratio)” value was -5.17.

For G110A U129C, the “polymerase ribozyme fitness (log ratio)” value is -1.47.

Turning to C13A A46U U106C, the “polymerase ribozyme fitness (log ratio)” value was -2.81.

Consider C49G A50C C89U A91C, for which the “polymerase ribozyme fitness (log ratio)” value is -2.86.

G51A G71C U112C: the “polymerase ribozyme fitness (log ratio)” value was -2.08.

For the variant U21A G39U C64U A91C, the “polymerase ribozyme fitness (log ratio)” value is -2.67.

As to C12A C123U, the “polymerase ribozyme fitness (log ratio)” value is 0.76.

For U38A G39U C82G U130A, the “polymerase ribozyme fitness (log ratio)” value is -3.44.

In the case of A5G G69U, the “polymerase ribozyme fitness (log ratio)” value was 0.484.

For A43G A50G G60A, the “polymerase ribozyme fitness (log ratio)” value is -4.16.

Turning to A90G U116A, the “polymerase ribozyme fitness (log ratio)” value is -1.88.

As to G36U U78C, the “polymerase ribozyme fitness (log ratio)” value was -1.61.

Take C73U: the “polymerase ribozyme fitness (log ratio)” value amounted to 0.0933.

Regarding G42U C56U G127U, the “polymerase ribozyme fitness (log ratio)” value is -2.75.

On to C11G G52C G117A, for which the “polymerase ribozyme fitness (log ratio)” value was -1.05.

Consider G113U G128U, for which the “polymerase ribozyme fitness (log ratio)” value is -4.72.

For G63C U87G, the “polymerase ribozyme fitness (log ratio)” value is -0.832.

Regarding A18G C56G G58C C114A, the “polymerase ribozyme fitness (log ratio)” value was -3.34.

In the case of C8G U33G C72G C80U A103U G110C A121C U129C, the “polymerase ribozyme fitness (log ratio)” value was -7.86.

For the variant G44U G60A U129C, the “polymerase ribozyme fitness (log ratio)” value was -1.49.

Regarding A24U C79U C114U G128A U131A, the “polymerase ribozyme fitness (log ratio)” value is -5.77.

On to A5U G10U C49G C62G, for which the “polymerase ribozyme fitness (log ratio)” value was -4.17.

Regarding U67G G69U G113U, the “polymerase ribozyme fitness (log ratio)” value was -7.04.

For the variant U21A A27U U92A, the “polymerase ribozyme fitness (log ratio)” value was -7.38.

On to A29U G47A C62U C82U G117C, for which the “polymerase ribozyme fitness (log ratio)” value was -5.79.

With G113A U129G, the “polymerase ribozyme fitness (log ratio)” value is -1.7.

Consider G63C U81C, for which the “polymerase ribozyme fitness (log ratio)” value was -0.941.

As to C8U C88G, the “polymerase ribozyme fitness (log ratio)” value is -0.442.

For G44U A68G U92A A119U C124U, the “polymerase ribozyme fitness (log ratio)” value was -6.31.

G44U C98A G120U: the “polymerase ribozyme fitness (log ratio)” value is -6.27.

Take C53G G60A G61C A91C: the “polymerase ribozyme fitness (log ratio)” value was -3.39.

On to A6U G10C, for which the “polymerase ribozyme fitness (log ratio)” value is -0.4.

With C34A C53U C98A, the “polymerase ribozyme fitness (log ratio)” value is -1.98.

For G61U A121G, the “polymerase ribozyme fitness (log ratio)” value stood at 2.12.

On to A29U G69U U116C G117C, for which the “polymerase ribozyme fitness (log ratio)” value was -1.83.

With A5C C115A, the “polymerase ribozyme fitness (log ratio)” value is -0.966.

For C88G U125G, the “polymerase ribozyme fitness (log ratio)” value was -1.44.

For the variant U126A G128C, the “polymerase ribozyme fitness (log ratio)” value was -2.86.

A27U G47A: the “polymerase ribozyme fitness (log ratio)” value was -4.02.

For the variant G39U U106A G127A, the “polymerase ribozyme fitness (log ratio)” value is -2.14.

On to C80A G93U G120C, for which the “polymerase ribozyme fitness (log ratio)” value was -4.31.

Consider U54C U59C A119G, for which the “polymerase ribozyme fitness (log ratio)” value was 1.11.

As for C12A G63U, the “polymerase ribozyme fitness (log ratio)” value was -2.42.

On to C11U G93C U112A G127C U134A, for which the “polymerase ribozyme fitness (log ratio)” value is -0.699.

As to C72G A121U, the “polymerase ribozyme fitness (log ratio)” value came to 0.731.

As for G45A G69A U87A U125A, the “polymerase ribozyme fitness (log ratio)” value is -3.37.
